“Also recorded” adds a separate entry of the source.
Tests used:
HLA class I (MHC I) = test: Surface expression of endogenous MHC I on transfected HeLa cells, flow cytometry; type: cell-based, human; conditions: HeLa cells transfected with MARCH plasmid and GFP, 24 h post-transfection
Protocol: (§1) Flow cytometry. Cells were removed from tissue culture dishes with 0.05% Trypsin-EDTA (Invitrogen), washed with ice-cold PBS, and incubated with appropriate antibody for 30 minutes at 4° C. The cells were washed with ice-cold PBS and either resuspended in ice-cold PBS or incubated with PE-conjugated anti-mouse secondary antibody (DAKO) and washed again before analysis with a BD Biosciences (San Jose, Calif.) FACScalibur flow cytometer.
(§2) The ability to downregulate MHC I is common to KSHV-K3, KSHV-K5, MHV68-K3 and MV-M153R (Coscoy and Ganem, 2000, supra; Guerin et al., 2002, supra; Ishido et al., 2000b supra; Stevenson et al., 2000, supra). Additional substrates are ICAM-1 and B7.2 (but not B7.1) for KSHV-K5, as well as CD95 and CD4 for M153R (Coscoy and Ganem, 2001, supra; Guerin et al., 2002, supra; Ishido et al., 2000a, supra; Mansouri et al., 2003, supra). Since only low copy numbers were detected in HeLa cells for transcripts corresponding to each of the MARCH-proteins (FIG. 7C, and data not shown), HeLa cells were transfected with expression plasmids for MARCH-I, II, III, IV, V and VIII. Surface expression of selected glycoproteins was monitored upon transfection. The following known substrates for viral K3-family members were tested: Fas (CD95) and HLA class I (MHC I), both of which are endogenously expressed in HeLa cells, as well as transfected HLA-A2.1 or CD4. […] Surface expression of the respective markers was analyzed by flow cytometry. GFP was used to identify transfected cells.
With regards to whether MHC I downregulation by MARCH-IV was only observed at very high expression levels, since the viral immune evasion genes seem to be dedicated to MHC I downregulation, MHC I expression was compared at different expression levels of MARCH-IV or KSHV-K5 by taking advantage of the tetracycline-regulatable system to partially express either protein (Gossen, M. and H. Bujard, Proc. Natl. Acad. Sci. USA 89:5547-5551, 1992). Tet-off HeLa cells were transfected with either MARCH-IV or with KSHV-K5 in the presence of increasing amounts of tetracycline to shut off transcription. […]

transferrin receptor = test: Surface expression of transferrin receptor on transfected HeLa cells, flow cytometry; type: cell-based, human; conditions: HeLa cells transfected with MARCH plasmid and GFP, 24 h post-transfection
Protocol: as §1
Cells were transfected with appropriate plasmids as well as GFP to track transfection efficiency. […]
The ability to downregulate MHC I is common to KSHV-K3, KSHV-K5, MHV68-K3 and MV-M153R (Coscoy and Ganem, 2000, supra; Guerin et al., 2002, supra; Ishido et al., 2000b supra; Stevenson et al., 2000, supra). […] Since only low copy numbers were detected in HeLa cells for transcripts corresponding to each of the MARCH-proteins (FIG. 7C, and data not shown), HeLa cells were transfected with expression plasmids for MARCH-I, II, III, IV, V and VIII. Surface expression of selected glycoproteins was monitored upon transfection. […] Surface expression of the respective markers was analyzed by flow cytometry. […]

ubiquitin = test: In vitro ubiquitination assay with GST-fused RING-CH (PHD) domains, E1, E2 panel, anti-ubiquitin immunoblot; type: biochemical; conditions: for ubiquitin ligase activity with UbCH5a: E2 = UbCH5a; for ubiquitin ligase activity with MmUbc6: E2 = murine MmUbc6
Protocol: Ubiquitination assay. UbCH2 and UbCH3 were obtained from Boston Biochem. (His)6-UbCH5a and GST fusion proteins were expressed in BL21-DE3 cells (Stratagene) and BL21 cells (Amersham), respectively, and purified as previously described (Boutell, C., S. Sadis and R. D. Everett, J. Virol. 76:841-850, 2002; Tiwari, S. and A. M. Weissman, J. Biol. Chem. 276:16193-16200, 2001). Purified E3 proteins were stored at 4° C., and E2 proteins were stored at −80° C. In vitro reaction mixtures (20 μl total) included: 50 nM rabbit E1 (Boston Biochem), 28 μM Ubiquitin, 5 mM ATP, 50 mM Tris-HCl pH 7.5, 50 mM NaCl, and 2 mM DTT. E2 enzymes were used at concentrations varying from 0.1 to 2.3 μM, and E3 concentrations ranged from 3 to 30 μM. After 90 minutes of incubation at 30° C., reactions were stopped by boiling in SDS sample buffer. Samples were electrophoresed through 12% polyacrylamide SDS gels and blotted using anti-ubiquitin mouse antibody, P4D1 (Santa Cruz Biotech).
In vitro reaction mixtures (20 μl total) included: 50 nM rabbit E1 (Boston Biochem), 28 μM Ubiquitin, 10 mM ATP, 50 mM Tris-HCl pH 7.5, 50 mM NaCl, and 2 mM DTT. E2 enzymes were used at concentrations varying from 0.7 to 2.3 μM, and E3 concentrations ranged from 3 to 25 μM. After 90 minutes of incubation at 30° C., reactions were stopped by addition of 4×reducing sample buffer. Samples were electrophoresed through 12% SDS gels and blotted using anti-ubiquitin mouse antibody (Santa Cruz Biotech).
To examine if the RING-CH domains of MARCH-I and MARCH-II would act as ubiquitin ligases in vitro, DNA fragments encoding the amino-terminal RING-CH-domain of both proteins were fused to Glutathione-S-transferase. The resulting constructs were sequence confirmed and expression of GST-MARCH protein verified by immunoblot. The GST-fusion protein was expressed and purified from E. coli cultures using Glutathione-columns. The ICP0-RING-domain was also purified, in parallel with the MARCH-I and MARCH-II constructs. A panel of E2 enzymes was either purchased from commercial sources or purified either by nickel-chelate chromatography or on glutathione columns. All E2-enzymes formed mercapto-ethanol-sensisitve complexes with ubiquitin thus showing ubiquitin conjugating activity. Purified ubiquitin and E1 was obtained from commercial sources.
To examine if the RING-CH domains of MARCH proteins act as ubiquitin ligases in vitro, a DNA fragment encoding the amino-terminal RING-CH-domains of MARCH-I, II, IV and VIII were fused to Glutathione-S-transferase (GST) for bacterial expression. The GST-fusion proteins were purified from E. coli cultures using Glutathione-sepharose-columns. Approximately thirty E2 proteins are found in the human genome compared to only one E1 enzyme (Pickart, 2001, supra). […] The specificity and selectivity of E3s with respect to E2s, however, is not well characterized. To cover a spectrum of E2s, a panel of E2 enzymes (Mansouri et al., 2003, supra) was acquired. The various E2 enzymes were incubated with or without the RING-CH-GST fusions in the presence of ubiquitin, ATP, E1. The formation of multiubiquitin-adducts was examined by immunoblotting with antibodies against ubiquitin.

HLA-A2.1 = test: Surface expression of co-transfected HLA-A2.1 constructs on HeLa cells, flow cytometry; type: cell-based, human
Protocol: as §1, §2
The most likely targets for ubiquitination on transmembrane glycoproteins are lysines in the cytoplasmic tail. To examine the role of lysines for MHC I and CD4 downregulation by MARCH-IV, a panel of constructs derived from the human MHC I molecule HLA-A2.1 and a lysine-deleted version of CD4 (Mansouri et al., 2003, supra) were used. In addition to MARCH-IV, MARCH-VIII was included in this analysis since it reduced HLA-A2.1 surface expression (FIG. 10A). […] To rule out the possibility that these mutations changed the target molecules in such a way that they are no longer recognized by MARCH-IV or VIII, a lysine residue into a HA-tag at the carboxyterminal end of HLA-A2.1 was introduced.

[1] = tested on: Fas (CD95), MHC I, HLA-A2.1, CD4, transferrin receptor, B7.1; test: Surface glycoprotein panel on transfected HeLa cells, flow cytometry; type: cell-based, human; conditions: HeLa cells transfected with MARCH plasmid
Protocol: as §1
The ability to downregulate MHC I is common to KSHV-K3, KSHV-K5, MHV68-K3 and MV-M153R (Coscoy and Ganem, 2000, supra; Guerin et al., 2002, supra; Ishido et al., 2000b supra; Stevenson et al., 2000, supra). Additional substrates are ICAM-1 and B7.2 (but not B7.1) for KSHV-K5, as well as CD95 and CD4 for M153R (Coscoy and Ganem, 2001, supra; Guerin et al., 2002, supra; Ishido et al., 2000a, supra; Mansouri et al., 2003, supra). Since only low copy numbers were detected in HeLa cells for transcripts corresponding to each of the MARCH-proteins (FIG. 7C, and data not shown), HeLa cells were transfected with expression plasmids for MARCH-I, II, III, IV, V and VIII. Surface expression of selected glycoproteins was monitored upon transfection. […] Surface expression of the respective markers was analyzed by flow cytometry. […]

B1: full-length MARCH-IV: MARCH-IV full length, which contains an N-terminal extension of 63 amino acids (protein)
chain: WYCYGLCAPAPQMLRHQGLLKCRCRMLFNDLKVFLLRRPPQAPLPMHGDPQPPGLAANNTLPALGAGGWAGWRGPREVVGREPPPVPPPPPLPPSSVEDDWGGPATEPPASLLSSASSDDFCKEKTEDRYSLGSSLDSGMRTPLCRICFQGPEQGELLSPCRCDGSVKCTHQPCLIKWISERGCWSCELCYYKYHVIAISTKNPLQWQAISLTVIEKVQVAAAILGSLFLIASISWLIWSTFSPSARWQRQDLLFQICYGMYGFMDVVCIGLIIHEGPSVYRIFKRWQAVNQQWKVLNYDKTKDLEDQKAGGRTNPRTSSSTQANIPSSEEETAGTPAPEQGPAQAAGHPSGPLSHHHCAYTILHILSHLRPHEQRSPPGSSRELVMRVTTV
surface expression of MHC I (HLA class I (MHC I)): downregulates MHC I

B2: MARCH-I: human membrane-associated RING-CH transmembrane ubiquitin ligase, SEQ ID NOS:39 and 54; expressed by transfection or as GST-RING-CH domain (protein, listed as Homo sapiens)
chain: MTSSHVCCNFLNMWKKSKISTMYYLNQDAKLSNLFLQASSPTTGTAPRSQSRLSVCPSTQDICRICHCEGDEESPLITPCRCTGTLRFVHQSCLHQWIKSSDTRCCELCKYDFIMETKLKPLRKWEKLQMTTSERRKIFCSVTFHVIAITCVVWSLYVLIDRTAEEIKQGNDNGVLEWPFWTKLVVVAIGFTGGLVFMYVQCKVYVQLWRRLKAYNRVIFVQNCPDTAKKLEKNFSCNVNTDIKDAVVVPVPQTGANSLPSAEGGPPEVVSV
surface expression of transferrin receptor (TfR) (transferrin receptor): reduced the surface levels of transferring receptor; also recorded: Some reduction; also recorded: strong downregulation
surface expression of MHC I (HLA class I (MHC I)): no effect
surface expression of MHC I (HLA class I (MHC I); listed as MARCH I): No significant MHC I downregulation
ubiquitin ligase activity with UbCH5a (ubiquitin): more active
ubiquitin ligase activity with MmUbc6 (ubiquitin): only active with MmUbc6
formation of high molecular weight ubiquitinated complexes with the E2 enzymes tested (ubiquitin; GST-RING-CH fusion, E2 panel overall): less active with most E2 enzymes tested

B3: ICPO: purified RING domain (amino acids 1-241) of herpes simplex ICP0 as GST fusion, positive control (protein)
chain: MEPRPGASTRRPEGRPQREPAPDVWVFPCDRDLPDSSDSEAETEVGGRGDADHHDDDSASEADSTDTELFETGLLGPQGVDGGAVSGGSPPREEDPGSCGGAPPREDGGSDEGDVCAVCTDEIAPHLRCDTFPCMHRFCIPCMKTWMQLRNTCPLCNAKLVYLIVGVTPSGSFSTIPIVNDPQTRMEAEEAVRAGTAVDFIWTGNQRFAPRYLTLGGHTVRALSPTHPEPTTDEDDDDLDD
modifications: left off: a dimerising Fc or GST
notes: purified RING domain (amino acids 1-241) of herpes simplex ICP0 as GST fusion, positive control
ubiquitin ligase activity with UbCH5a (ubiquitin): promoted the formation of high-molecular weight complexes
ubiquitin ligase activity with MmUbc6 (ubiquitin): some activity

B4: MARCH-VIII: human membrane-associated RING-CH ubiquitin ligase, SEQ ID NOS:53 and 61 (protein, listed as Homo sapiens)
chain: MSMPLHQISAIPSQDAISARVYRSKTKEKEREEQNEKTLGHFMSHSSNISKAGSPPSASAPAPVSSFSRTSITPSSQDICRICHCEGDDESPLITPCHCTGSLHFVHQACLQQWIKSSDTRCCELCKYEFIMETKLKPLRKWEKLQMTSSERRKIMCSVTFHVIAITCVVWSLYVLIDRTAEEIKQGQATGILEWPFWTKLVVVAIGFTGGLLFMYVQCKVYVQLWKRLKAYNRVIYVQNCPETSKKNIFEKSPLTEPNFENKHGHGICHSDTNSSCCTEPEDTGAEIIHV
surface expression of transferrin receptor (TfR) (transferrin receptor): almost complete elimination; also recorded: down regulated
surface expression of MHC I (HLA class I (MHC I)): reduced the surface expression of MHC I; also recorded: down regulated
downregulation of HLA-A2.1 with a lysine re-introduced into the C-terminal HA-tag (HLA-A2.1; HeLa cells): restored downregulation
surface expression of transfected HLA-A2.1 (HLA-A2.1; HeLa cells co-transfected with HLA-A2.1 and MARCH plasmid): reduced
downregulation of HLA-A2.1 with lysines removed from the tail (HLA-A2.1; HeLa cells, lysine-less HLA-A2.1 construct): resistant

B5: MARCH-III: human membrane-associated RING-CH ubiquitin ligase, SEQ ID NOS:43 and 56 (protein, listed as Homo sapiens)
chain: MTTSRCSHLPEVLPDCTSSAAPVVKTVEDCGSLVNGQPQYVMQVSAKDGQLLSTVVRTLATQSPFNDRPMCRICHEGSSQEDLLSPCECTGTLGTIHRSCLEHWLSSSNTSYCELCHFRFAVERKPRPLVEWLRNPGPQHEKRTLFGDMVCFLFITPLATISGWLCLRGAVDHLHFSSRLEAVGLIALTVALFTIYLFWTLVSFRYHCRLYNEWRRTNQRVILLIPKSVNVPSNQPSLLGLHSVKRNSKETVV
reduction in surface levels of any of the glycoproteins of the panel [1]: No reduction in surface levels
